This note sets out measurements from PMC10233381.

This test deals with Myc-PUM1-R1147W (human) (UniProt Q14671). Description: co-IP; HEK293T co-transfected with Myc-PUM1 (WT or mutant) and a GST-tagged protein (250 ng each), 48 h; IP with anti-Myc, immunoblot with anti-GST; quantified against Myc-PUM1-WT; called in vitro by the paper. In general terms: A western blot detects proteins with antibodies after separation by electrophoresis.
Chain of UniProt Q14671 (Q14671 other isoform, or with tags, fused parts or gaps R1147W): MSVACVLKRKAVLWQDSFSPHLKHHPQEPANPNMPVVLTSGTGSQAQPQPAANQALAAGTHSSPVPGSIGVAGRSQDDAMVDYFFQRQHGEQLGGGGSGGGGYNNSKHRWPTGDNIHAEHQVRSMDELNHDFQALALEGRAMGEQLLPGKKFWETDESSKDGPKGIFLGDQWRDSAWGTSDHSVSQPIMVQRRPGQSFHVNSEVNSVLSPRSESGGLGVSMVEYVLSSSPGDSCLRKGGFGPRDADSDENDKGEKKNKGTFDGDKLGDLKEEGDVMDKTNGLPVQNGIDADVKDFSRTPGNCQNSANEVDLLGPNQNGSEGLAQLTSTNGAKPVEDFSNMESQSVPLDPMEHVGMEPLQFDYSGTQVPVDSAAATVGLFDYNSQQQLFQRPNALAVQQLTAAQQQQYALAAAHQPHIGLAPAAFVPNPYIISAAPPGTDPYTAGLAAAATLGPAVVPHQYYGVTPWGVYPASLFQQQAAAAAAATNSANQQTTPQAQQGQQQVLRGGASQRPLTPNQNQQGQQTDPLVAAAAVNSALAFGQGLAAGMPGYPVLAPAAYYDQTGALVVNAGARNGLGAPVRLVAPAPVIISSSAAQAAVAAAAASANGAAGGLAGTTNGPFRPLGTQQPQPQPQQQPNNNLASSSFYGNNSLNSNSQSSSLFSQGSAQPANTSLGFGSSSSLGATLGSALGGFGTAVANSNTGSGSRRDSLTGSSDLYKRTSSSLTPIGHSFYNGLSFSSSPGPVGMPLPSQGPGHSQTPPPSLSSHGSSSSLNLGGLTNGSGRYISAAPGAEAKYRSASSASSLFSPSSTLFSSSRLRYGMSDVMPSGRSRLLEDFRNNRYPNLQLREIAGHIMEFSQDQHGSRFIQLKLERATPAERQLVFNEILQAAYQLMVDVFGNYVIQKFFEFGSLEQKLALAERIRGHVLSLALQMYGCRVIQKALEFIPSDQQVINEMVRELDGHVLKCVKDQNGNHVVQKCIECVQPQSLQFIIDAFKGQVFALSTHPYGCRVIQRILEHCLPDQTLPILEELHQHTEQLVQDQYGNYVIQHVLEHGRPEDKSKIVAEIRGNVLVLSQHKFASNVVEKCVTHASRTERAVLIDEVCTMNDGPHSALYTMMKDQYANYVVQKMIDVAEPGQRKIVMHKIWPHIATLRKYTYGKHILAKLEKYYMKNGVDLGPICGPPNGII

For the substance “GST-CNOT1 (from UniProt A5YKK6 1-2376) (natural protein)”, the percent by which the interaction was diminished worked out at 35%.
